According to PMC3987144 (The Journal of Cell Biology, 2014):
Each block holds one molecule with its values, some of them ahead of it.

B1: His-SNAP25 (natural protein)
chain: MPADPSEEVAPQVPKTELEELQINAQGVADESLESTRRMLALCEESKEAGIRTLVALDDQGEQLDRIEEGMDQINADMREAEKNLSGMEKCCGICVLPCNKSQSFKEDDGTWKGNDDGKVVNNQPQRVMDDRNGMMAQAGYIGRITNDAREDEMEENMGQVNTMIGNLRNMALDMGSELENQNRQIDRINRKGESNEARIAVANQRAHQLLK
B2: GST-Syx1A-H3 (Syx1A SNARE domain, 200-267 aa) (domain or fragment)
chain: ARHQDIMKLETSIKELHDMFMDMAMLVESQGEMIDRIEYHVEHAMDYVQTATQDTKKALKYQSKARRK
B3: His-n-Syb (neuronal Synaptobrevin, amino acids 1-104) (domain or fragment)
chain: MADAAPAGDAPPNAGAPAGEGGDGEIVGGPHNPQQIAAQKRLQQTQAQVDEVVDIMRTNVEKVLERDSKLSELDDRADALQQGASQFEQQAGKLKRKFWLQNLK

Tests used:
[1] = target: Syx1A (Syntaxin 1A), endogenous (Drosophila melanogaster (endogenous in adult fly heads)) (UniProt Q24547); experiment: co-IP
Syx1A (Syntaxin 1A), endogenous (Drosophila melanogaster (endogenous in adult fly heads)), sequence (Q24547 whole entry): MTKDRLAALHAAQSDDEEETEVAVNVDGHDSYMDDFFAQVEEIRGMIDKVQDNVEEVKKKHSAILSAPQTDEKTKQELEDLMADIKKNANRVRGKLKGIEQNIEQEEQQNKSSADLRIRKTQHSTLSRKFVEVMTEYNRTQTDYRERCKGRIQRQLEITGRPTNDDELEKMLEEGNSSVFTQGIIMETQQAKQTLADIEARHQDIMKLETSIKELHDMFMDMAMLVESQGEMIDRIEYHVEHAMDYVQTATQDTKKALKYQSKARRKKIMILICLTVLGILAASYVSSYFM

[2] = target: V100 (neuronal v-ATPase V0 subunit a1), endogenous (Drosophila melanogaster (endogenous in adult fly heads)) (UniProt Q8IML5); experiment: co-IP
[3] = target: GST-open Syx1A (Syx1A L168A/E169A mutant, 1-267 aa) (Drosophila melanogaster, UniProt Q24547 1-267, L168A | E169A); experiment: pull-down
[4] = target: GST-Syx1A (Syntaxin 1A, 1-267 aa) (Drosophila melanogaster, UniProt Q24547 1-267); experiment: pull-down
His-SNAP25 = target: B1; experiment: pull-down

percent of V100 in a complex with Syx1A [1]: < 50%
Molecule: V100 (neuronal v-ATPase V0 subunit a1), endogenous (from UniProt Q8IML5 1-833) (natural protein)

Molecule: B1
percent of total input in complex with V100 (% of total input) [2]: 1
binding result [3]: binds
binding result [4]: binds

Molecule: B2
binding result (His-SNAP25): binds

Molecule: B3
binding result [4]: binds
